Source: patent US20160200789A1, “IL4 CONJUGATED TO ANTIBODIES AGAINST EXTRACELLULAR MATRIX COMPONENTS” (PHILOGEN S.P.A., priority 2013, published 2016)

What was measured:
F9 teratocarcinoma [1] = test: Therapy studies in F9 teratocarcinoma-bearing mice; assay type: in vivo, mouse
Procedure: In a dose finding study, F9 tumour-bearing mice were randomly grouped (n=5) and injected intravenously (i.v.) into the lateral tail vein when tumours were clearly palpable. […] The therapeutic antibodies were all dissolved in phosphate buffered saline (PBS) and this buffer was also used in the negative control treatment groups. The mice were monitored daily and tumour volume was measured with a calliper (volume=length×width^2×0.5).

[2] = biological target: T1, EDA domain of fibronectin (Homo sapiens, UniProt P02751); test: Surface plasmon analysis (BIAcore) on EDA antigen-coated sensor chip; assay type: binding
T1 construct: surface plasmon analysis (BIAcore) on an EDA antigen-coated sensor chip
T1 sequence (P02751 1727-1814 limits assumed): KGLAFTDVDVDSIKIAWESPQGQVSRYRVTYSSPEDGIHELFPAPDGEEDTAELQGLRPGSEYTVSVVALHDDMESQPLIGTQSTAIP
Excerpt: The fusion protein was expressed and purified to homogeneity as described for F8-IL4 above.

CT26 colon carcinoma = test: Ex vivo immunofluorescence of CT26 tumours; assay type: in vivo, mouse
Excerpt: In order to study a second immunocompetent mouse model of cancer, the inventors focused on Balb/c mice (obtained from Elevage Janvier [France]) bearing subcutaneous CT26 tumours of colorectal origin.

[3] = system: CHS-induced ear inflammation in K14-VEGF-A mice; test: Contact hypersensitivity-induced ear inflammation in K14-VEGF-A mice; assay type: in vivo, mouse
Excerpt: A delayed-type hypersensitivity reaction was induced in the ear skin of female FVB mice that overexpress VEGF-A in the epidermis under control of the human keratin 14 promoter as previously described (Detmar et al., 1998; Kunstfeld et al., 2004; Xia et al., 2003). Heterozygous VEGF-A transgenic mice with no pre-existing inflammatory lesions were sensitized by topical application of a 2% oxazolone (4-ethoxymethylene-2-phenyl-2-oxazoline-5-one; Sigma) solution in acetone/olive oil (4:1 vol/vol) to the shaved abdomen (50 μl) and each paw (5 μl). Five days after sensitization, the ears were challenged by topical application of 20 μl of a 1% oxazolone solution. Therapy was started on day 7 and repeated at day 9, 11 and 13. […] Ear thickness was measured every other day and at day 15, mice were sacrificed and ear draining lymph nodes were weighted. The timeline for this experiment is illustrated in FIG. 13A. Each treatment event is indicated by an arrow.

[4] = system: tumour neovascular structures in murine F9, CT26 and A20 tumours; test: Immunofluorescence on untreated tumour sections; set-up: species or system mouse; details: biotinylated protein on F9, CT26 and A20 tumour sections
Excerpt: For detection streptavidin-Alexa Fluor 488 and anti-rat-Alexa Fluor 594 (Invitrogen) were used. Slides were mounted with fluorescent mounting medium (Dako) and analyzed with an Axioskop2 mot plus microscope (Zeiss).

[5] = system: imiquimod (IMQ)-induced ear inflammation in C57BL/6 mice; test: IMQ-induced inflammation model of psoriasis; assay type: in vivo, mouse
Procedure: C57BL/6 mice (Charles River, Germany) were treated on each side of each ear with 5 mg Aldara cream (containing 0.25 mg Imiquimod). The treatment schedule is illustrated in FIG. 11A. The Aldara cream was applied every day for 5 days (on day 1, 2, 3, 4 5 and […]: each application is illustrated by an asterisk in FIG. 11A). Ear thickness was measured with a caliper before the application of the cream. […] Treatment was repeated on day 9 and 11 (each treatment event is illustrated by an arrow in FIG. 11A).

CTLL2 cells = test: CTLL2 cell proliferation bioactivity assay; assay type: cell-based; details: 24 h
Procedure: The biological activity of murine IL4 was determined by its ability to stimulate the proliferation of CTLL2 cells. […] After incubation at 37° C. for 24 h, cell proliferation was determined with Cell Titer Aqueous One Solution (Promega).

A20 lymphoma = test: Therapy studies in A20 tumour-bearing mice; details: 90 μg i.v. every second day
Excerpt: Data represent mean tumour volumes (±SEM), n=5 mice per group. […] Data represent mean tumour volumes (±SEM), n=5 mice per group.
Differences in tumor volume, % ID/g and Tumor-to-blood ratio between therapeutic groups were compared using Graphpad Prism's repeated measures (mixed model) ANOVA analysis.
For this, as well as the other experiments described below, F9 teratocarcinoma (CRL-1720; ATCC, Molsheim Cedex, France), CT26 colon carcinoma (CRL-2638; ATCC, Molsheim Cedex, France) and A20 lymphoma (TIB-208; ATCC, Molsheim Cedex, France) were grown according to the supplier's protocol and tumour cells implanted subcutaneously in the flank using 25×10^6 cells (F9), 2×10^6 cells (CT26) or 8×10^6 cells (A20). F9 teratocarcinoma cells were implanted into 129/SvEv mice (Charles River, Sulzfeld, Germany), CT26 colon carcinoma cells were implanted into Balb/c mice (Elevage Janvier, Le Genest-St-Isle, France) and A20 lymphoma cells were implanted into Balb/c mice (Elevage Janvier, Le Genest-St-Isle, France). Mice were sacrificed when tumour volumes reached a maximum of 2000 mm^3.

[6] = Solubility of the product (limit of dose escalation); assay type: physicochemical; details: doses above 90 μg could not be tested
F9 teratocarcinoma [7] = test: Ex vivo immunofluorescence of treated F9 tumours; assay type: in vivo, mouse; details: ex vivo immunofluorescence after i.v. administration
Procedure: For ex vivo detection of the localization of the IL4-based immunocytokines and of tumour infiltrating cells after therapy, mice were injected three times with the appropriate proteins as for therapy experiments and sacrificed two days after the last injection. Tumours were excised, embedded in cryoembedding medium (Thermo Scientific) and cryostat sections (10 μm) were stained using the antibodies: Anti-IL4 antibody (eBioscience), CD45 (leukocytes, BD Biosciences), CD4 (CD4+Tcells, BioXCell), CD8 (CD8+Tcells, BioXCell), F4/80 (macrophages, Abcam), Asialo GM1 (NK cells, Wako Pure Chemical Industries), CD45R (B cells, eBioscience), Foxp3 (eBioscience), CD31 (Santa Cruz); and detected with AlexaFluor488 respectively AlexaFluor594 coupled secondary antibodies (Invitrogen). Slides were mounted with fluorescent mounting medium (Dako) and analyzed with an Axioskop2 mot plus microscope (Zeiss).

[8] = system: collagen induced arthritis in DBA/1J mice; test: Aggressive collagen induced arthritis model, targeted vs untargeted IL4 (Example 3a); assay type: in vivo, mouse; details: 100 μg/injection i.v., days 1, 3 and 7
Procedure: Injections were administered on day 1, 3 and 7.

[9] = system: endometriotic lesions in Balb/c mice; test: Endometriosis model in Balb/c mice; assay type: in vivo, mouse
Procedure: Endometriosis was induced in sixty eight-week old female Balb/c mice according to the protocol described by Somigliana et al. (1999).
One day after the implantation of endometrial tissue, pairs of mice (who received tissue from the same donor) were treated either with intravenous (i.v.) injections of F8-murine IL4 (200 μg/mouse; SEQ ID NO: 21) or PBS (group 1); or with i.v. injections of KSF-murine IL4 (200 μg/mouse; SEQ ID NO: 44) or PBS (group 2). The same treatment was repeated at days 4 and 7. Mice were sacrificed at day 15.

[10] = 200 μg/mouse i.v. days 1, 4, 7, day 15, vs PBS

B1: F8-IL4: antibody F8 (anti-EDA of fibronectin) in diabody format fused at the C-terminus to murine interleukin 4 via 15 amino acid linker (protein)
chain: EVQLLESGGGLVQPGGSLRLSCAASGFTFSLFTMSWVRQAPGKGLEWVSAISGSGGSTYYADSVKGRFTISRDNSKNTLYLQMNSLRAEDTAVYYCAKSTHLYLFDYWGQGTLVTVSSGGSGGEIVLTQSPGTLSLSPGERATLSCRASQSVSMPFLAWYQQKPGQAPRLLIYGASSRATGIPDRFSGSGSGTDFTLTISRLEPEDFAVYYCQQMRGRPPTFGQGTKVEIKSSSSGSSSSGSSSSGHIHGCDKNHLREIIGILNEVTGEGTPCTEMDVPNVLTATKNTTESELVCRASKVLRIFYLKHGKTPCLKKNSSVLMELQRLFRAFRCLDSSISCTMNESKSTSLKDFLESLKSIMQMDYS
modifications: Synthetic sequence Amino acid sequence of F8 -(murine) IL4 of PCT/EP2014/053998
notes: antibody F8 (anti-EDA of fibronectin) in diabody format fused at the C-terminus to murine interleukin 4 via 15 amino acid linker
tumour retardation in dose finding study (F9 teratocarcinoma [1]; 90 μg compared with 45 μg, i.v. every second day): best tumour retardation results
therapeutic effect compared with KSF-IL4 (F9 teratocarcinoma [1]; 90 μg i.v. every second day): substantially more potent
cure of F9 tumours by treatment alone (F9 teratocarcinoma [1]; monotherapy): not cured
single-agent therapeutic activity (F9 teratocarcinoma [1]; mouse, in vivo): potent single-agent therapeutic activity
affinity for the cognate antigen [2]: retained a high-affinity for the cognate antigen
accumulation at the tumour site (CT26 colon carcinoma): preferentially accumulated at the tumour site
ear thickness ([3]; 100 μg i.v. days 7, 9, 11, 13, vs PBS or KSF-IL4): significantly reduced ear thickness
ear draining lymph nodes (weight) ([3]; day 15): smaller
decrease in ear thickness from treatment initiation (day 7) ([3]; mouse, in vivo): significantly more than treatment with either FSF-IL4, F8-SIP or PBS
recognition of tumour neovascular structures [4]: able to recognize tumour neovascular structures
ear thickness ([5]; 100 μg i.v. days 7, 9, 11, day 13, vs PBS or KSF-IL4): significantly reduced ear thickness
ear draining lymph nodes (weight) ([5]; day 13): smaller
decrease in ear thickness from treatment initiation (day 7) ([5]; mouse, in vivo): significantly more than in mice receiving either PBS, F8-SIP or KSF-IL4 treatment
EC50 (CTLL2 cells; CTLL2 cells, 20000 cells/well): 0.023 nM
biological cytokine activity (CTLL2 cells; CTLL2 proliferation): comparable to that of recombinant murine IL4
tumour growth retardation (A20 lymphoma): superior tumour growth retardation compared to KSF-IL4
solubility [6]: insufficient solubility
accumulation on CD31-positive tumour neo-vascular structures (F9 teratocarcinoma [7]): preferential accumulation
activity in reducing arthritic score and paw swelling compared to KSF-IL4 [8]: statistically significant superior activity
mice completely cured of the disease ([9]; 200 μg/mouse i.v.): three mice out of ten
number of the endometriotic lesions [9, 10]: statistically significant reduction
volume of the endometriotic lesions [9, 10]: statistically significant reduction
